According to the supplement of paper PMC10724198:
± gives the standard deviation of the averaged measurements.

system: Saccharomyces cerevisiae; experiment: protein stability index of tFT-peptide fusion (C-terminal peptide) (PSI (0-1 scale)); higher = more stable (slower turnover); conditions: genetic background: wild type; temperature: 30 C
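Note: PSI is a weighted mean of sequencing reads over stability bins, variants kept only with over 10 reads, mCherry proximal and sfGFP distal, peptide attached via GGGS linker.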

Sequence	protein stability index
TSPVPPSTPAPP	0.6686 ± 0.0045
TSRNFPGLHDNY	0.673 ± 0.052
TSVAYVWRLFTE	0.597 ± 0.016
TSYEAKKKWQVI	0.645 ± 0.025
TSYNLPAAPHPV	0.679 ± 0.037
TTKNTSIKTKLK	0.67 ± 0.026
TTKTGQVEIYKV	0.661 ± 0.033
TTLSMYFCMCVL	0.638 ± 0.14
TTNGGPGNGAQN	0.66543 ± 0.00044
TTNLDKKILKTS	0.6525 ± 0.0022
TTPPFVSALPLS	0.71142 ± 0.00043
TTPTAPCLSSHD	0.69 ± 0.042
TTRLARNEQVKR	0.62 ± 0.1
TVAPNFIPTSTS	0.662 ± 0.044
TVFPPLPTLPCV	0.792 ± 0.1
TVLRMFPPRSIW	0.67 ± 0.046
TVPAKQHLSGYE	0.679 ± 0.011
TVQPGAVRFILF	0.703 ± 0.028
TVRKMEKKKDGG	0.663 ± 0.012
TVVVGHSRLVVG	0.703 ± 0.027
TVYSPAYSIIHQ	0.584 ± 0.053
TWGACGKMLSDR	0.682 ± 0.026
TWIEGGVDRQRG	0.683 ± 0.074
TWIKVPVERTRP	0.683 ± 0.053
TYIRRTICGVLS	0.587 ± 0.021
TYLCLLVRDNRG	0.706 ± 0.012

Sequence	protein stability index
TYNVVKSMVDNK	0.672 ± 0.026
TYPRPGSSIWLR	0.572 ± 0.022
TYRLLAEPTPPA	0.702 ± 0.018
TYYCFYCHPSLL	0.699 ± 0.057
VAAFGGGATNGV	0.736 ± 0.029
VAGQISGLIYFR	0.699 ± 0.044
VAHSPLPLILPI	0.629 ± 0.041
VAPPRQGSPASR	0.725 ± 0.057
VARFRGGPVPSF	0.67 ± 0.045
VARGCNSVYGYA	0.653 ± 0.012
VASITEIRKKGR	0.629 ± 0.022
VATGVFADPMMC	0.667 ± 0.11
VAVCGTTNGKNA	0.75 ± 0.033
VAVGIVGGWWGV	0.843 ± 0.11
VAVIGAPPGNSR	0.672 ± 0.029
VAVRCVLWEGFS	0.76 ± 0.084
VAVSLFVPVLFL	0.567 ± 0.061
VAWTYDYTGVLR	0.626 ± 0.037
VCAASAGGARAG	0.6213 ± 0.0025
VCFVGSCFKLVL	0.6324 ± 0.0032
VCGGVWGGDNGG	0.771 ± 0.049
VCGLCGGFMGLA	0.69 ± 0.042
VCLFPDTMSWDC	0.803 ± 0.075
VCLVHSPFDTLP	0.699 ± 0.037
VCLVLGGVEWCV	0.6861 ± 0.004
VCRGRGVEGIGW	0.695 ± 0.12

Sequence	protein stability index
VCSVLFPFLPLP	0.7043 ± 0.0056
VCSVVGGGYSWG	0.686 ± 0.12
VCVQECMPTAWR	0.704 ± 0.036
VDASGYDEQSVH	0.6622 ± 0.0018
VDNTRKRSTNSV	0.694 ± 0.021
VDSCASVGQGGL	0.702 ± 0.044
VDVPAGPGGGAC	0.641 ± 0.077
VDVWCGRGVGRG	0.707 ± 0.031
VEAIKTSMFFLW	0.711 ± 0.055
VEFWGAVCNDCL	0.706 ± 0.043
VEGGGYVVHSGG	0.657 ± 0.066
VEPLLGHPISRD	0.702 ± 0.049
VERRTDRNLGSV	0.645 ± 0.007
VFAPWLFLFGFF	0.521 ± 0.017
VFCGRVVVGSVV	0.65745 ± 0.0006
VFCSCTARPPLR	0.717 ± 0.023
VFCTFVGPRSDV	0.775 ± 0.13
VFESGRYLRVAP	0.777 ± 0.05
VFGAHGRYQDSR	0.607 ± 0.054
VFGRGGRGGPLG	0.647 ± 0.049
VFLCNGVGGRGG	0.681 ± 0.27
VFLLFFFPCSSR	0.528 ± 0.013
VFLPPPPPPAPP	0.639 ± 0.011
VFLRGWGRSEGG	0.679 ± 0.012
VFLRVGAPPVRI	0.586 ± 0.032
VFNSFPLRLFGL	0.693 ± 0.023

Sequence	protein stability index
VFRFCCQTGALR	0.671 ± 0.02
VFSCWQFAGGGY	0.69 ± 0.037
VFSLLRCLFRPP	0.669 ± 0.012
VFSLPFPSRSPL	0.805 ± 0.028
VFVGGGCRGFCL	0.624 ± 0.075
VFVPPPPSPSSL	0.683 ± 0.01
VFYLNLLNQTRV	0.629 ± 0.016
VGAFCLLLGFEG	0.599 ± 0.038
VGGAVGAVGGGG	0.651 ± 0.02
VGGCRVRDVAGE	0.686 ± 0.042
VGGCVVSFSANR	0.657 ± 0.043
VGGGGSLVVESG	0.70581 ± 0.00064
VGGIGKGSWRWM	0.6466 ± 0.0034
VGGVDMCGARVV	0.754 ± 0.032
VGGVWWGGWGHW	0.733 ± 0.039
VGHVVVRLWPHE	0.665 ± 0.013
VGKVRGLEAVEE	0.683 ± 0.0052
VGLPPVAGLVTG	0.751 ± 0.073
VGRERGRAACGE	0.662 ± 0.049
VGRGEEYYGMEV	0.634 ± 0.0066
VGSRLVYSAFNV	0.69 ± 0.01
VGSTKMRYFGEG	0.692 ± 0.018
VGVCVGWDGRLW	0.691 ± 0.025
